Assay results from the supplement of paper PMC11246515.
± gives the standard deviation of the averaged measurements.

Assay: total protein half-life in vivo (active degradation + dilution); higher = more stable protein
[1] = E. coli NCM3722 delta-clpP delta-lon delta-hslV, growth: N-lim chemostat, doubling time 6 h
[2] = E. coli NCM3722 delta-smpB, growth: N-lim chemostat, doubling time 6 h
[3] = wild type E. coli NCM3722, growth: C-lim chemostat, doubling time 3 h
[4] = wild type E. coli NCM3722, growth: C-lim chemostat, doubling time 6 h
[5] = wild type E. coli NCM3722, growth: C-lim chemostat, doubling time 12 h
[6] = wild type E. coli NCM3722, growth: N-lim chemostat, doubling time 6 h
[7] = wild type E. coli NCM3722, growth: P-lim chemostat, doubling time 6 h
[8] = wild type E. coli NCM3722, growth: P-lim chemostat, doubling time 12 h
[9] = E. coli NCM3722 delta-clpP, growth: N-lim chemostat, doubling time 6 h
[10] = E. coli NCM3722 delta-hslV, growth: N-lim chemostat, doubling time 6 h
[11] = wild type E. coli NCM3722, growth: N-lim chemostat, doubling time 12 h
[12] = E. coli NCM3722 delta-lon, growth: N-lim chemostat, doubling time 6 h

Sequence	total protein half-life in vivo [1] [h]	total protein half-life in vivo [2] [h]	total protein half-life in vivo [3] [h]	total protein half-life in vivo [4] [h]	total protein half-life in vivo [5] [h]	total protein half-life in vivo [6] [h]	total protein half-life in vivo [7] [h]	total protein half-life in vivo [8] [h]	total protein half-life in vivo [9] [h]	total protein half-life in vivo [10] [h]	total protein half-life in vivo [11] [h]	total protein half-life in vivo [12] [h]
MKRKVLLIPLIIFLAIAAALLWQLARNAEGDDPTNLESALIGKPVPKFRLESLDNPGQFYQADVLTQGKPVLLNVWATWCPTCRAEHQYLNQLSAQGIRVVGMNYKDDRQKAISWLKELGNPYALSLFDGDGMLGLDLGVYGAPETFLIDGNGIIRYRHAGDLNPRVWEEEIKPLWEKYSKEAAQ [P0AA86]	6.39 ± 0.1	6.09 ± 0.34	3 ± 0.084	6.112 ± 0.034	13.3 ± 1.2	6.16 ± 0.32	5.3	12.5 ± 1.7				
MLTLLHLLSAVALLVWGTHIVRTGVMRVFGARLRTVLSRSVEKKPLAFCAGIGVTALVQSSNATTMLVTSFVAQDLVALAPALVIVLGADVGTALMARILTFDLSWLSPLLIFIGVIFFLGRKQSRAGQLGRVGIGLGLILLALELIVQAVTPITQANGVQVIFASLTGDILLDALIGAMFAIISYSSLAAVLLTATLTAAGIISFPVALCLVIGANLGSGLLAMLNNSAANAAARRVALGSLLFKLVGSLIILPFVHLLAETMGKLSLPKAELVIYFHVFYNLVRCLVMLPFVDPMARFCKTIIRDEPELDTQLRPKHLDVSALDTPTLALANAARETLRIGDAMEQMMEGLNKVMHGEPRQEKELRKLADDINVLYTAIKLYLARMPKEELAEEESRRWAEIIEMSLNLEQASDIVERMGSEIADKSLAARRAFSLDGLKELDALYEQLLSNLKLAMSVFFSGDVTSARRLRRSKHRFRILNRRYSHAHVDRLHQQNVQSIETSSLHLGLLGDMQRLNSLFCSVAYSVLEQPDEDEGRDEY [P0AF43]	6.4			5.38 ± 0.19		6.48	6.1173 ± 0.0061	11.55 ± 0.033	6.35 ± 0.26	5.73 ± 0.74	10.5 ± 4.5	
MALAMKVISQVEAQRKILEEAVSTALELASGKSDGAEVAVSKTTGISVSTRYGEVENVEFNSDGALGITVYHQNRKGSASSTDLSPQAIARTVQAALDIARYTSPDPCAGVADKELLAFDAPDLDLFHPAEVSPDEAIELAARAEQAALQADKRITNTEGGSFNSHYGVKVFGNSHGMLQGYCSTRHSLSSCVIAEENGDMERDYAYTIGRAMSDLQTPEWVGADCARRTLSRLSPRKLSTMKAPVIFANEVATGLFGHLVGAIAGGSVYRKSTFLLDSLGKQILPDWLTIEEHPHLLKGLASTPFDSEGVRTERRDIIKDGILTQWLLTSYSARKLGLKSTGHAGGIHNWRIAGQGLSFEQMLKEMGTGLVVTELMGQGVSAITGDYSRGAAGFWVENGEIQYPVSEITIAGNLKDMWRNIVTVGNDIETRSNIQCGSVLLPEMKIAGQ [P0AFK0]	4.58 ± 0.36	4.12 ± 0.032	3.39 ± 0.57	5.59 ± 0.52	9.13 ± 0.67	4.27 ± 0.28	5.5 ± 0.28	10.09 ± 0.033	4.28 ± 0.05	4.07 ± 0.065	6.45 ± 0.34	4.34 ± 0.1
MTHDNIDILVVDDDISHCTILQALLRGWGYNVALANSGRQALEQVREQVFDLVLCDVRMAEMDGIATLKEIKALNPAIPVLIMTAYSSVETAVEALKTGALDYLIKPLDFDNLQATLEKALAHTHSIDAETPAVTASQFGMVGKSPAMQHLLSEIALVAPSEATVLIHGDSGTGKELVARAIHASSARSEKPLVTLNCAALNESLLESELFGHEKGAFTGADKRREGRFVEADGGTLFLDEIGDISPMMQVRLLRAIQEREVQRVGSNQIISVDVRLIAATHRDLAAEVNAGRFRQDLYYRLNVVAIEVPSLRQRREDIPLLAGHFLQRFAERNRKAVKGFTPQAMDLLIHYDWPGNIRELENAVERAVVLLTGEYISERELPLAIASTPIPLGQSQDIQPLVEVEKEVILAALEKTGGNKTEAARQLGITRKTLLAKLSR	5.51 ± 2.1	2.79 ± 0.13	2.64 ± 0.3	3.94 ± 1.3	6.74 ± 1.1	2.89	3.93 ± 0.27	7.36 ± 0.67	3.79 ± 0.11	2.98 ± 0.35	4.34 ± 0.63	4.45 ± 1.4
MIKFSATLLATLIAASVNAATVDLRIMETTDLHSNMMDFDYYKDTATEKFGLVRTASLINDARNEVKNSVLVDNGDLIQGSPLADYMSAKGLKAGDIHPVYKALNTLDYTVGTLGNHEFNYGLDYLKNALAGAKFPYVNANVIDARTKQPMFTPYLIKDTEVVDKDGKKQTLKIGYIGVVPPQIMGWDKANLSGKVTVNDITETVRKYVPEMREKGADVVVVLAHSGLSADPYKVMAENSVYYLSEIPGVNAIMFGHAHAVFPGKDFADIEGADIAKGTLNGVPAVMPGMWGDHLGVVDLQLSNDSGKWQVTQAKAEARPIYDIANKKSLAAEDSKLVETLKADHDATRQFVSKPIGKSADNMYSYLALVQDDPTVQVVNNAQKAYVEHYIQGDPDLAKLPVLSAAAPFKVGGRKNDPASYVEVEKGQLTFRNAADLYLYPNTLIVVKASGKEVKEWLECSAGQFNQIDPNSTKPQSLINWDGFRTYNFDVIDGVNYQIDVTQPARYDGECQMINANAERIKNLTFNGKPIDPNAMFLVATNNYRAYGGKFAGTGDSHIAFASPDENRSVLAAWIADESKRAGEIHPAADNNWRLAPIAGDKKLDIRFETSPSDKAAAFIKEKGQYPMNKVATDDIGFAIYQVDLSK	6.84 ± 0.98	5.91 ± 0.18	3.34 ± 0.07	5.93 ± 0.14	12.9 ± 2.1	6.327 ± 0.037	5.23 ± 0.31	11.212 ± 0.0065	6.56 ± 1.5	6.23 ± 0.19	12.2 ± 1.1	7.14 ± 0.34
MLKLTDITWLYHHLPMRFSLTVERGEQVAILGPSGAGKSTLLNLIAGFLTPASGSLTIDGVDHTTMPPSRRPVSMLFQENNLFSHLTVAQNIGLGLNPGLKLNAVQQGKMHAIARQMGIDNLMARLPGELSGGQRQRVALARCLVREQPILLLDEPFSALDPALRQEMLTLVSTSCQQQKMTLLMVSHSVEDAARIATRSVVVADGRIAWQGMTNELLSGKASASALLGITG	4.96 ± 0.61	5.31 ± 0.54	3.03 ± 0.11	5.94 ± 0.4	10.9 ± 0.42	5.13 ± 0.15	5.54 ± 0.3	11.98 ± 0.032	5.67 ± 0.82	6.21 ± 1.1	12.6 ± 1.7	5.79 ± 0.26
MKLSTCCAALLLALASPAVLAAPGSCERIQSDISQRIINNGVPESSFTLSIVPNDQVDQPDSQVVGHCANDTHKILYTRTTSGNVSAPAQSSQDGAPAEPQ		4.61	3.25	6.33		5.52	5.94 ± 0.1	> 16	6.13		11.6 ± 1.9	6.79
